The text below walks through data of article PMC6101608 (Nucleic Acids Research, 2018).

In data set [1] the test system is LtmA (Mycobacterium smegmatis mc2 155). Description: EMSA.
The test system of data set [2] is HpoR (Mycobacterium smegmatis mc2 155). Put plainly: EMSA.
In the next data set the target is T1, HpoR (M. smegmatis mc2 155, UniProt A0R4J9 1-199).
T1 sequence: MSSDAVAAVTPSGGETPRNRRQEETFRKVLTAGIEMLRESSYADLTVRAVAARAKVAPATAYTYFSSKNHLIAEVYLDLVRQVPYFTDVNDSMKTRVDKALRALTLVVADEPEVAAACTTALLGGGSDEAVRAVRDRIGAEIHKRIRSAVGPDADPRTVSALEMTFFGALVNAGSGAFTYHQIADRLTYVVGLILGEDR
Put plainly: SPR.

As for Ms5860p, the Kd in data set [1] amounted to 620 nM; in data set [2], 290 nM.

B1: LtmA (natural protein)
chain: MSDPAMESTRRRLSARQADTVERLGRAAVELISREGYAGLTVRRVAAEAGVGSATAYTYFSSKEHLVAEVFWRRLSAAPPAVHESPDPATRVVEVLQHIASLVADEPAFAGAVTTALLGKDPDVDALRQRIGADIRQRLVAALGPDVRIDVIEALELLYTGTMVWAGMGYDSYEQVVRRLEKSARLVLS
Molecule B1 yielded a Kd in the data set with HpoR of 7500 ± 800 nM.
